Measurements from patent publication US20210017555A1, “METHOD FOR PRODUCING 4-AMINOCINNAMIC ACID, AND VECTOR AND HOST CELL USED IN SAME” (JAPAN SCIENCE AND TECHNOLOGY AGENCY, priority 2018, published 2021).

B1: scFrm2: enzyme (nitroreductase) derived from Saccharomyces cerevisiae, SEQ ID NO:7, expressed in E. coli (protein, listed as Saccharomyces cerevisiae)
chain: MSPTGNYLNAITNRRTIYNLKPELPQGVGLDDVKRTVHVILKNTPTAFNSQVNRAVIIVGDTHKRIWDAVASAMPTAEAKKRPESCRDEAYGSVIFFTDEGPTEKLQRDFPALAAAFPTCAAHTTGAVQIQSWTALELLGLGANLQHYNDYVKSALPQDVPIAWTVQSQLVFGVPTALPEEKTFINNVINVYH
modifications: scFrm2 Polypeptide
B2: cdFLDZ: enzyme derived from Clostridium difficile, SEQ ID NO: 11, expressed in E. coli (protein)
chain: MKISSMFTPIRIGSMTVPNRFVVPPMGNNFANTDGTLSETSKAYYLERALGGFGLITIESSVVDKKAKGGPRKPCLYDDSTIDSFKNVIDACHDAGSKVSIQLQHAGSEGNEKVAGHPLKAASAIPASNGRNTPLAITTEEIYELIESYGDAALRAQKAGADAVEVHCAHGYLVSSFISQRTNKRVDEFGGCFENRMRLPRLIIENIRKKVGNSLAILCRINSTDDVPGGIDVHDSSVIAAYLEDCGIDGLHVSRSIHIHDEYMWAPTTLHAGFSAELVTEIKKAVSIPVITVGRYTEPQFAELMVRQGRCDLVAFGRQSLADPEMPNKAKNGKLDEMIPCIACLQGCVPNMFQGKPIACLANPILGHEAELKPAEISKEVLVVGGGVGGMLAAWVCAKRGHNVTLVEKSEVLGGQMRLAAYPPGKGDITNLVRSYISKCNQYGVKICTNTEATVELIKEKSPDVVIIATGATPLVLPIPGINDSGLIHAVDLLDGKKSCGKKVLVVGGGMVGCEVAAFLGEQEHEVTVIELREEVGADVISEHRKFLMNDFENYNIHTITGAKVSKFYDDGVDYLLTDGTEHDLKGFDSVVLAMGSRNYDPLSEVIKEVVKETYIVGDAVKARRALDATKEAFEVALNI
modifications: Clostridium difficile; cdFLDZ Polypeptide
B3: nfsB: nitroreductase derived from Escherichia coli, SEQ ID NO:15, overexpressed in E. coli (protein, listed as Escherichia coli)
chain: MDIISVALKRHSTKAFDASKKLTPEQAEQIKTLLQYSPSSTNSQPWHFIVASTEEGKARVAKSAAGNYVFNERKMLDASHVVVFCAKTAMDDVWLKLVVDQEDADGRFATPEAKAANDKGRKFFADMHRKDLHDDAEWMAKQVYLNVGNFLLGVAALGLDAVPIEGFDAAILDAEFGLKEKGYTSLVVVPVGHHSVEDFNATLPKSRLPQNITLTEV
modifications: nfsB Polypeptide
B4: RgPAL: phenylalanine ammonia-lyase derived from yeast Rhodotorula glutinis JN-1, SEQ ID NO: 5, expressed in E. coli (protein, listed as Rhodotorula glutinis)
chain: MAPSVDSIATSVANSLSNGLAGDLRKKTSGAGSLLPTTETTQIDIVERILADAGATDQIKLDGYTLTLGDVVGAARRGRTVKVADSPQIREKIDASVEFLRTQLDNSVYGVTTGFGGSADTRTEDAISLQKALLEHQLCGVLPTSMDGFALGRGLENSLPLEVVRGAMTIRVNSLTRGHSAVRIVVLEALTNFLNHGITPIVPLRGTISASGDLSPLSYIAASITGHPDSKVHVDGQIMSAQEAIALKGLQPVVLGPKEGLGLVNGTAVSASMATLALTDAHVLSLLAQANTALTVEAMVGHAGSFHPFLHDVTRPHPTQIEVARNIRTLLEGSKYAVHHETEVKVKDDEGILRQDRYPLRCSPQWLGPLVSDMIHAHSVLSLEAGQSTTDNPLIDLENKMTHHGGAFMASSVGNTMEKTRLAVALMGKVSFTQLTEMLNAGMNRALPSCLAAEDPSLSYHCKGLDIAAAAYTSELGHLANPVSTHVQPAEMGNQAINSLALISARRTAEANDVLSLLLATHLYCVLQAVDLRAMEFEHTKEFEPMVTDLLKQHFGALATADVEDKVRKSIYKRLQQNNSYDLEQRWHDTFSVATGAVVEALAGNEVSLASLNAWKVACAEKAIALTRTVRDSFWAAPSSASPALKYLSPRTRILYSFVREDVGVKARRGDVYLGKQEVTIGTNVSRIYEAIKDGRIAPVLVKMMA
modifications: RgPAL Polypeptide
B5: nfsA: nitroreductase derived from Escherichia coli, SEQ ID NO: 13, overexpressed in E. coli (protein, listed as Escherichia coli)
chain: MTPTIELICGHRSIRHFTDEPISEAQREAIINSARATSSSSFLQCSSIIRITDKALREELVTLTGGQKHVAQAAEFWVFCADFNRHLQICPDAQLGLAEQLLLGVVDTAMMAQNALIAAESLGLGGVYIGGLRNNIEAVTKLLKLPQHVLPLFGLCLGWPADNPDLKPRLPASILVHENSYQPLDKGALAQYDEQLAEYYLTRGSNNRRDTWSDHIRRTIIKESRPFILDYLHKQGWATR
modifications: nfsA Polypeptide
B6: scHbn1: enzyme (nitroreductase) derived from Saccharomyces cerevisiae, SEQ ID NO:9, expressed in E. coli (protein, listed as Saccharomyces cerevisiae)
chain: MSAVATYLKTLTARRTIYALKPELPGEITINDIQSVVQTIIKETPTAFNSQPNRAVILTGETHKKVWDEVTKAIESPAGQKRPASARDEAFGSVIFFTDDKVTEKLKADFPAYAAAFPSFADHTSGAAQINSWVALEAMGLGGHLQHYNGYIKAALPSKIPESWTVQAQLVFGTPAAPPGEKTYIKNDVEIFN
modifications: scHbn1 Polypeptide

How the values were obtained:
[1] = Resting-cell reaction of scFrm2-, scHbn1-, cdFLDZ-producing E. coli, 4-nitrocinnamic acid to 4-aminocinnamic acid; type: cell-based, Escherichia coli; conditions: resting cells, 2.5 mM 4-nitrocinnamic acid, 30° C., 12 hours, pH 7.0; versus control E. coli
Protocol: Each of the scFrm2-, scHbn1-, and cdFLDZ-producing Escherichia coli strains were precultured using 3 mL of LB medium containing 30 mg/L kanamycin sulfate at 28° C. for 16 hours with shaking at 300 rpm. 1 mL of this preculture liquid was inoculated to 100 mL of LB medium containing 30 mg/L kanamycin sulfate, cultured at 30° C. for 4 hours with shaking at 120 rpm, and after 0.1 mM IPTG was added, incubated further at 20° C. for 12 hours. The obtained bacterial cells were washed twice with a reaction buffer (100 mM potassium dihydrogen phosphate (KH2PO4), 1 mM magnesium sulfate (MgSO4), 0.5 mM thiamine chloride, pH 7.0).
The resting cells thus obtained were suspended in a reaction buffer containing 2.5 mM 4-nitrocinnamic acid, and reacted at 30° C. for 12 hours with shaking at 300 rpm. After the reaction, the reaction supernatant was collected to quantify 4-aminocinnamic acid. The supernatant was transferred to a centrifuge tube, collected by centrifugation, and the reaction product was quantified using the above HPLC.
(§1) The same experiment was also performed using the host Escherichia coli as a control.

[2] = Enzyme activities of nfsA and nfsB in cell reactions, 4-nitrocinnamic acid to 4-aminocinnamic acid; type: cell-based, Escherichia coli; conditions: 2 g/L 4-nitrocinnamic acid, 2% glycerol, pH 8.0, 37° C., 18 hours
Protocol: Each of the nfsA- and nfsB-producing Escherichia coli strains was precultured using 5 mL of LB medium containing 40 mg/L of streptomycin sulfate at 28° C. for 16 hours with shaking at 300 rpm. 1 mL of this pre-cultured solution was inoculated to 100 mL of TB medium containing 80 mg/L streptomycin sulfate, cultured at 30° C. for 4 hours with shaking at 120 rpm. 0.1 mM IPTG was added, and the culture was further incubated at 30° C. for another 18 hours.
The pH of the culture medium containing the obtained bacterial cells was adjusted to 8.0 by addition of 2N NaOH. 2 g/L of 4-nitrocinnamic acid and 2% final concentration of glycerol were suspended in this culture medium, and the reaction was carried out at 37° C. for 18 hours with shaking at 120 rpm. After the reaction, the reaction solution supernatant was collected to quantify 4-aminocinnamic acid. Specifically, the supernatant was transferred to a centrifuge tube, collected by centrifugation, and the reaction product was quantified using the above HPLC.
The same experiment was also carried out using the host Escherichia coli as a control.

[3] = Resting-cell reaction of PAL-producing E. coli, 4-nitrophenylalanine to 4-nitrocinnamic acid; type: cell-based, Escherichia coli; conditions: resting cells, 24 hours, 28° C., pH 8.5, 20 mM 4-nitrophenylalanine; versus control Escherichia coli
Protocol: The CamPAL-, LiePAL-, and RgPAL-producing Escherichia coli strains mentioned above were precultured using 3 mL of LB medium containing 40 mg/L kanamycin sulfate at 28° C. for 16 hours with stirring at 300 rpm. 1 mL of this pre-cultured liquid was inoculated to 100 mL of LB medium containing 40 mg/L of kanamycin sulfate, cultured at 30° C. for 4 hours with shaking at 120 rpm, and after the addition of 0.5 mM of IPTG, incubated further for 20 hours. The obtained bacterial cells were washed twice with a reaction buffer (100 mM Tris-HCl buffer, pH 8.5).
The resting cells obtained were suspended in a reaction buffer and reacted at 28° C. with shaking at 300 rpm. 20 mM of 4-nitrophenylalanine was added to the medium every 24 hours while the reaction was continued. The reaction supernatant was periodically collected to quantify 4-nitrophenylalanine and 4-nitrocinnamic acid.
The supernatant was transferred to a centrifuge tube, collected by centrifugation, and the reaction product was quantified using high performance liquid chromatography (HPLC).
as §1

[4] = Deammonase activity of purified enzymes by absorptiometry; type: biochemical; conditions: purified recombinant enzyme 2 mg/mL, 50 mM Tris-HCl pH 8.6, 0.3 to 9.6 mM substrate, 380 nm, 10 minutes
Protocol: • Apparatus: BECKMAN COULTER DU800 UV/Vis Spectrophotometer • Amount of enzyme: 2mg/mL • Buffer solution: 50mM Tris-HCl buffer (pH=8.6) • Concentration of substrate: 0.3mM to 9.6mM • Volume: 200μL • Measurement wavelength: From 4-nitrophenylalanine to 380 nm 4-nitrocinnamic acid: From phenylalanine to 305 nm cinnamic acid: • Measurement period: 10 minutes • Measurement temperature: 25° C.
Each of the CamPAL-, LiePAL-, and RgPAL-producing Escherichia coli strains was inoculated to 5 mL of LB medium containing 30 mg/L kanamycin sulfate, and cultured at 28° C. for 16 hours (hereinafter also may be referred to as “preculture”). […]
The enzyme activity was measured and quantified by measuring the absorbance of the reaction product at the absorption wavelength for 10 minutes using an absorptiometer.
Specifically, regarding the deammonase activity for phenylalanine, 2 mg/mL of each of the above enzymes was added to 50 mM Tris-HCl buffer (pH=8.6) containing 0.3 to 9.6 mM phenylalanine to cause reaction, and the change in absorbance at a wavelength of 305 nm resulting from the formation of cinnamic acid was measured for 10 minutes. […]

Molecule	amount of 4-aminocinnamic acid in the medium supernatant [1]	4-aminocinnamic acid converted from 4-nitrocinnamic acid [2]	also measured
B1	remarkably increased as compared with the control E. coli	–	–
B2	remarkably increased as compared with the control E. coli	–	–
B3	–	0.76 g/L	–
B4	–	–	amount of 4-nitrocinnamic acid in the reaction supernatant [3]: significantly higher than that of the control Escherichia coli; capacity to convert 4-nitrophenylalanine to 4-nitrocinnamic acid [4]: have a capacity to covert 4-nitrophenylalanine to 4-nitrocinnamic acid
B5	–	0.26 g/L	–
B6	remarkably increased as compared with the control E. coli	–	–
